The source of these data is paper PMC9162472, “Improved furfural tolerance in Escherichia coli mediated by heterologous NADH-dependent benzyl alcohol dehydrogenases” (Biochemical Journal, 2022).

For orientation: Km means the substrate concentration at which the rate is half of its maximum. A word on the kcat: it is the maximal rate divided by the concentration of active sites. As a reminder, the kcat/Km is the turnover number divided by the Michaelis constant.

Holding throughout (experiment): purified protein
Holding throughout (details): 0.2 mM NADH, 50 mM potassium phosphate pH 7.2, 200 mM NaCl, 37 °C, error is 95% CI, kcat m^-1 [sic]

Substrate in series [1]: O=Cc1ccco1
It is filed as biochemical, Acinetobacter calcoaceticus.

Substrate in series [2]: O=Cc1ccccc1
In kind it is biochemical, Acinetobacter calcoaceticus.

Substrate in series [3]: O=Cc1ccc(CO)o1
In kind it is biochemical, Acinetobacter calcoaceticus.

Substrate in series [4]: CCCCCC=O
In kind it is biochemical, Burkholderia ambifaria.

Substrate in series [5]: O=Cc1ccco1
In kind it is biochemical, Burkholderia ambifaria.

Substrate in series [6]: O=Cc1ccccc1
In kind it is biochemical, Burkholderia ambifaria.

Substrate in series [7]: O=Cc1ccc(CO)o1
In kind it is biochemical, Burkholderia ambifaria.

Substrate in series [8]: O=Cc1ccco1
In kind it is biochemical, Pseudomonas putida.

Substrate in series [9]: O=Cc1ccccc1
It is filed as biochemical, Pseudomonas putida.

Substrate in series [10]: O=Cc1ccc(CO)o1
It is filed as biochemical, Pseudomonas putida.

B1: AcBAD (Acinetobacter calcoaceticus) (protein)
chain: MSELKDIIAAVTPCKGADFELQALKIRQPQGDEVLVKVVATGMCHTDLIVRDQYYPVPLPAVLGHEGSGIIEAIGPNVTELQVGDHVVLSYGYCGKCTQCNTGNPAYCSEFFGRNFSGADSEGNHALCTHDQGVVNDHFFAQSSFATYALSRENNTVKVTKDVPIELLGPLGCGIQTGAGACINALKVTPASSLVTWGAGAVGLSALLAAKVCGASIIIAVDIVESRLELAKQLGATHVINSKTQDPVAAIKEITDGGVNFALESTGRPEILKQGVDALGILGKIAVVGAPQLGTTAQFDVNDLLLGGKTILGVVEGSGSPKKFIPELVRLYQQGKFPFDQLVKFYAFDEINQAAIDSHKGITLKPIIKIA
For the protein B1, in the series “purified protein [1]”, the Km was 359 ± 224 µM, the kcat worked out at 2.73 ± 0.467 s⁻¹ and the kcat/Km was found to be 8330 ± 3330 M⁻¹ s⁻¹. Moreover, in the series “purified protein [2]”, the Michaelis constant (Km) was found to be 412 ± 251 µM, the kcat was 6.57 ± 1.34 s⁻¹ and the kcat/Km was 16700 ± 10000 M⁻¹ s⁻¹. In “purified protein [3]”, the Km came out at 294 ± 277 µM, the kcat is 0.565 ± 0.146 s⁻¹ and the kcat/Km came to 1670 ± 1670 M⁻¹ s⁻¹.

B2: BaBAD (Burkholderia ambifaria MC40-6) (protein)
chain: MYTENDTRAVTAAVARAAGAPFSIEPARIRAPRGDEVLVRVVATGLCHTDLIVRDQYYPVPLPAVLGHEGAGVVEAVGPNVKTLAAGDHVVLTYGACGHCASCAGGHGAYCRQFFALNFGGADADGQTALRDAAGEPLHDHFFAQSSFASYALARENNAIKVPKEAPLELLGPLGCGIQTGAGAVINSLAVRTGSSFASFGAGAVGMSAVMAARIAGATTIIAVDIVPSRLALALELGATHAINSKEVDVVDAIREITGGGVDYALESTGLPAVLSQGIDALGSRGTMGVVGAPKLGTKAEFDVNSLLLGGHTIRGIVEGDSVPQTFIPQLVQLHLQGRFPFDRLVKFYPLEQINQAAADSSSGITLKPILRLPH
In the case of B2, the Km stood at 672 ± 374 µM in “purified protein [4]”, 75.2 ± 62.2 µM in the series “purified protein [5]”, 78.3 ± 30 µM in “purified protein [6]” and 377 ± 242 µM in the series “purified protein [7]”. The kcat in “purified protein [4]” amounted to 0.758 ± 0.163 s⁻¹; in “purified protein [5]”, 0.575 ± 0.112 s⁻¹; in “purified protein [6]” it was 0.865 ± 0.0785 s⁻¹; in “purified protein [7]” it was 1.09 ± 0.192 s⁻¹. Also, the kcat/Km stood at 1170 ± 667 M⁻¹ s⁻¹ in the series “purified protein [4]”, 8330 ± 6670 M⁻¹ s⁻¹ in the series “purified protein [5]”, 11700 ± 5000 M⁻¹ s⁻¹ in “purified protein [6]” and 3330 ± 1670 M⁻¹ s⁻¹ in the series “purified protein [7]”.

B3: XylB (Pseudomonas putida) (protein)
chain: EIKAAIVRQKNGPFLLEHVALNEPAEDQVLVRLVATGLCHTDLVCRDQHYPVPLPMVFGHEGAGVVERVGSAVKKVQPGDHVVLTFYTCGSCDACLSGDPTSCANSFGPNFMGRSVTGECTIHDHQGAEVGASFFGQSSFATYALSYERNTVKVTKDVPLELLGPLGCGIQTGAGSVLNALNPPAGSSIAIFGAGAVGLSAVMAAVVAGCTKIIVVDVKENRLKLADELGATHVINAASSDPVEKIKEICAGGVPYVLETSGLPSVLQQAILSSAIGGEIGIVGAPPMGATIPVDINFLLFNRKLRGIVEGQSISDIFIPRLVELYRQGKFPFDKLLKFYSFDEINQAAEDSENGITLKPVLRIS
Regarding B3, in the series “purified protein [8]”, the Km was 234 ± 153 µM, the kcat was determined as 2.45 ± 0.467 s⁻¹ and the kcat/Km was 10000 ± 6670 M⁻¹ s⁻¹. Also, in “purified protein [9]”, the Km is 21.2 ± 16.2 µM, the kcat worked out at 0.192 ± 0.0343 s⁻¹ and the kcat/Km came out at 8330 ± 6670 M⁻¹ s⁻¹. In “purified protein [10]”, the Km amounted to 461 ± 52.1 µM, the kcat worked out at 1.16 ± 0.0453 s⁻¹ and the kcat/Km was determined as 3330 ± 333 M⁻¹ s⁻¹.
